For series [1], the target named is T1, GST-DRG9Nip (N186S) N186S (Oryza sativa ssp. japonica cv. Nipponbare) (UniProt Q69P58).
T1 sequence: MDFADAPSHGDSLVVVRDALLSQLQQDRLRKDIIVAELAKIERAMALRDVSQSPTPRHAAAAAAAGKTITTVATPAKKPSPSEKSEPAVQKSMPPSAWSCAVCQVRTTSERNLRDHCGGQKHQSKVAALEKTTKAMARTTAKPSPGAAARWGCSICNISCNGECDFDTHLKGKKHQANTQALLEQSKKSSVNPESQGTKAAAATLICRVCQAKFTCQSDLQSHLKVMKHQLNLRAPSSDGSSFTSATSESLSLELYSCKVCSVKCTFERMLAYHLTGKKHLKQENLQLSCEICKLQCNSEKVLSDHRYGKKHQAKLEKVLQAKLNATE
Kind of series: EMSA. Conditions: 20 mM Hepes pH 7.5, 20 mM KCl2 (so in the source), 1 mM MgCl2, 10 mM ZnCl2, 5 mM DTT, 10% glycerol, 0.1% NP-40, room temperature, 1 h; 6% native PAGE, 0.5x TBE. For orientation: In EMSA bound probe runs differently from free probe, usually more slowly.

The target in series [2] is T2, GST-DRG9Nip (F267G) F267G (Oryza sativa ssp. japonica cv. Nipponbare) (UniProt Q69P58).
T2 sequence: T1 sequence with S186N, F267G
Briefly: EMSA. Conditions: 20 mM Hepes pH 7.5, 20 mM KCl2 (so in the source), 1 mM MgCl2, 10 mM ZnCl2, 5 mM DTT, 10% glycerol, 0.1% NP-40, room temperature, 1 h; 6% native PAGE, 0.5x TBE.

The values below come from PMC10957929.

Substitutions are numbered along the chain they refer to.

On to “GGGCUCAAAUUAAUUAGCCAGUGAAAAAUCAAAUUACAGAGUUGCUUAAUUUUUUUACUAGUAGAACGCAACAGUAAAAAGAAUUAACAGCAGUGAAUUAUUAGUUAAUUAGCUAGGGAGUUGAAAUAGUUUAGCGGUCAUGCACUACUGAUUUUUAAUUAGUGCAGACAACGACCGCGUGUGUGUAUAUGCAUGUAUACCUUUUACUGUAUCUUCAGAUUGUGUAUAUAUAUCAUAUAUGUACAGGAAAAGAUUUAUAUAUCAUACAUAUUUUGUUGU [OsNCED4 3'-UTR RNA]”, for which the binding result in series [1] is on record as “binds”; in series [2] it was “binds more weakly”.
